Experimental data from publication PMC9482650, “Quantitative fragmentomics allow affinity mapping of interactomes” (Nature Communications, 2022).

T1: PDZRN3_1, Q9UPQ7
T1 sequence (Q9UPQ7 244-349, limits assumed, looked up): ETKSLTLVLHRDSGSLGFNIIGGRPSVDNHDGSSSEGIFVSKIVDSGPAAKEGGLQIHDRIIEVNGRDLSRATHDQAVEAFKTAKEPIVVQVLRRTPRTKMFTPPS

T2: LIN7A, O14910
T2 sequence (O14910 103-200, limits assumed, looked up): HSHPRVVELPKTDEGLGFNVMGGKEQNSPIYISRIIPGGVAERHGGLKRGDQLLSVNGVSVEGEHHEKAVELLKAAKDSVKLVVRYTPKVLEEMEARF

T3: GRIP1_5, Q9Y3R0
T3 sequence (Q9Y3R0 568-668, limits assumed, looked up): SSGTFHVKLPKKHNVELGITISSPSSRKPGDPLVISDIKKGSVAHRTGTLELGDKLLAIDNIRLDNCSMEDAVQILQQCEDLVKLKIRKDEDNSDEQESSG

T4: MPP6, Q9NZW5
T4 sequence (Q9NZW5 125-219, limits assumed, looked up): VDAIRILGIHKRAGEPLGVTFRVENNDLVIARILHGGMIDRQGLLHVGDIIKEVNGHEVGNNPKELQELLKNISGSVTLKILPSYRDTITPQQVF

T5: PCLO, Q9Y6V0
T5 sequence (Q9Y6V0 4491-4600, limits assumed, looked up): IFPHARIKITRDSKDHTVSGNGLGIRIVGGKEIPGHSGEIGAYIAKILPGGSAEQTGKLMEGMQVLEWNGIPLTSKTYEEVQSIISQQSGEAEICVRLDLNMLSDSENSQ

T6: FRMPD1, Q5SYB0
T6 sequence (Q5SYB0 52-145, limits assumed, looked up): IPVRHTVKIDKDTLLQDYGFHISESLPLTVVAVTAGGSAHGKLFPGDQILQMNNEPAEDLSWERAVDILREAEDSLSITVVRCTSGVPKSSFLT

T7: MPP7, Q5T2T1
T7 sequence (Q5T2T1 134-230, limits assumed, looked up): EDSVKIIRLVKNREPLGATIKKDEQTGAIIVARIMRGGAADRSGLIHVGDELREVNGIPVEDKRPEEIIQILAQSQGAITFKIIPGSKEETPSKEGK

T8: SYNJ2BP, P57105
T8 sequence (P57105 8-110, limits assumed, looked up): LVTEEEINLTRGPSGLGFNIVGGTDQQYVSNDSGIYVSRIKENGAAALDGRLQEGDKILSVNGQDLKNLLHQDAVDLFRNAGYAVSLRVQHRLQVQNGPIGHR

T9: PTPN13_1, Q12923
T9 sequence (Q12923 1088-1188, limits assumed, looked up): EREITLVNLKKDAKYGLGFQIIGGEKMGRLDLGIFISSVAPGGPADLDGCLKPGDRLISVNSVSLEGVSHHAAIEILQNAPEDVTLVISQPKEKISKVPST

T10: GRIP1_7, Q9Y3R0
T10 sequence (Q9Y3R0 999-1096, limits assumed, looked up): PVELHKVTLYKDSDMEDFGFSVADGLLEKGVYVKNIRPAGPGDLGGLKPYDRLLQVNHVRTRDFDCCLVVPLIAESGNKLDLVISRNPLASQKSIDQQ

T11: ARHGAP21, Q5T5U3
T11 sequence (Q5T5U3 45-169, limits assumed, looked up): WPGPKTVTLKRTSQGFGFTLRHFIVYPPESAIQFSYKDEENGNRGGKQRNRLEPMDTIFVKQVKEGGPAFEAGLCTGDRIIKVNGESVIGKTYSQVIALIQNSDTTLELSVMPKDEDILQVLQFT


Experiments:
Assay in all cases: holdup assay
Design in all cases: key: below the threshold = too weak to quantify, mostly under pKd 3.1 to 4
Conditions in all cases: plain residues with an end cap or a label only (N-terminal biotin on a linker: ado-ado)
GRIP2_3, Q9C0E4 = target: GRIP2_3, Q9C0E4
PDZRN3_1, Q9UPQ7 = target: T1, PDZRN3_1, Q9UPQ7
DLG4_1, P78352 = target: DLG4_1, P78352
MAST2, Q6P0Q8 = target: MAST2, Q6P0Q8
LIN7A, O14910 = target: T2, LIN7A, O14910
GRIP1_5, Q9Y3R0 = target: T3, GRIP1_5, Q9Y3R0
GRIP2_6, Q9C0E4 = target: GRIP2_6, Q9C0E4
MAGI2_3, Q86UL8 = target: MAGI2_3, Q86UL8
FRMPD4, Q14CM0 = target: FRMPD4, Q14CM0
Inadl_4, Q8NI35 = target: Inadl_4, Q8NI35
SCRIB_2, Q14160 = target: SCRIB_2, Q14160
GRASP, Q7Z6J2 = target: GRASP, Q7Z6J2
GRID2IP_1, A4D2P6 = target: GRID2IP_1, A4D2P6
MPP6, Q9NZW5 = target: T4, MPP6, Q9NZW5
HTRA1, Q92743 = target: HTRA1, Q92743
PCLO, Q9Y6V0 = target: T5, PCLO, Q9Y6V0
FRMPD1, Q5SYB0 = target: T6, FRMPD1, Q5SYB0
MPP7, Q5T2T1 = target: T7, MPP7, Q5T2T1
MAGI2_5, Q86UL8 = target: MAGI2_5, Q86UL8
Inadl_3, Q8NI35 = target: Inadl_3, Q8NI35
MAGI1_2, Q96QZ7 = target: MAGI1_2, Q96QZ7
SYNJ2BP, P57105 = target: T8, SYNJ2BP, P57105
PTPN13_1, Q12923 = target: T9, PTPN13_1, Q12923
GRIP1_7, Q9Y3R0 = target: T10, GRIP1_7, Q9Y3R0
MAGI1_1, Q96QZ7 = target: MAGI1_1, Q96QZ7
ARHGAP21, Q5T5U3 = target: T11, ARHGAP21, Q5T5U3
NHERF4_2, Q86UT5 = target: NHERF4_2, Q86UT5
Chain of NHERF4_2, Q86UT5 (Q86UT5 220-308): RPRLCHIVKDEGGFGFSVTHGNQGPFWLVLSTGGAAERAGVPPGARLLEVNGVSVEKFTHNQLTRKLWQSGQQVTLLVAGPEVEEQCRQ

Chain of Inadl_3, Q8NI35 (Q8NI35 359-469): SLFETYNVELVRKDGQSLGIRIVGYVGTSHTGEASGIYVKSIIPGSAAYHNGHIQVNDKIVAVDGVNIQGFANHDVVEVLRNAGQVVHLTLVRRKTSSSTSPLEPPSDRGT
Chain of SCRIB_2, Q14160 (Q14160 857-960): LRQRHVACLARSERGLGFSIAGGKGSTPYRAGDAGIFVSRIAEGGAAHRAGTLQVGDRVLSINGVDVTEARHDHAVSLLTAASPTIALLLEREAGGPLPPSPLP
Chain of GRID2IP_1, A4D2P6 (A4D2P6 1-87): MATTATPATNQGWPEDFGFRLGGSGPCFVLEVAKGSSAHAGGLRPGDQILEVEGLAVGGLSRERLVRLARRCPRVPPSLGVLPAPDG
Chain of GRIP2_6, Q9C0E4 (Q9C0E4 648-740): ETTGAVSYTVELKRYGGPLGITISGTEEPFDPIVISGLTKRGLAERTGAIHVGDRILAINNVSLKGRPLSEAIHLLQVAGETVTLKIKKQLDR
Chain of MAST2, Q6P0Q8 (Q6P0Q8 1099-1202): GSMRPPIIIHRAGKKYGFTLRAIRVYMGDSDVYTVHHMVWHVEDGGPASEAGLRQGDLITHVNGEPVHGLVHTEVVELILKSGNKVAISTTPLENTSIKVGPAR
Chain of Inadl_4, Q8NI35 (Q8NI35 547-651): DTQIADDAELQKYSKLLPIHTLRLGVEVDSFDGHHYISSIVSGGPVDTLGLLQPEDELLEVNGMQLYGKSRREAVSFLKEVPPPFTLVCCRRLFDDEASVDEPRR
Chain of HTRA1, Q92743 (Q92743 360-477): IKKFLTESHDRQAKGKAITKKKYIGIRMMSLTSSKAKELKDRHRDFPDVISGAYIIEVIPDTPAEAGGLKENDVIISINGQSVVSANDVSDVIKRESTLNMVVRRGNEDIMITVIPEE
Chain of MAGI1_2, Q96QZ7 (Q96QZ7 456-580): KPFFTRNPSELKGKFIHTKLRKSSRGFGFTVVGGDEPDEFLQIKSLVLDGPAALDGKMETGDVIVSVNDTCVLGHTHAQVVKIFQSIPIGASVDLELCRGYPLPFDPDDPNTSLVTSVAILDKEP
Chain of MAGI1_1, Q96QZ7 (Q96QZ7 1-106): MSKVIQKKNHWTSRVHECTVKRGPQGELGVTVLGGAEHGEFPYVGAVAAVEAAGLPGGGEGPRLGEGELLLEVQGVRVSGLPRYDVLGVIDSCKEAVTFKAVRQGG
Chain of MAGI2_3, Q86UL8 (Q86UL8 600-682): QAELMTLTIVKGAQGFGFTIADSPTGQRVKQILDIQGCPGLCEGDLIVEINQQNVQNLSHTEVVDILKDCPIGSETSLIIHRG
Chain of MAGI2_5, Q86UL8 (Q86UL8 915-1017): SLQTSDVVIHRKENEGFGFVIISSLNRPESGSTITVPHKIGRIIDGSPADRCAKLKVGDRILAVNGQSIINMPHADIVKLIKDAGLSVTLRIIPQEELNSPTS
Chain of GRASP, Q7Z6J2 (Q7Z6J2 96-193): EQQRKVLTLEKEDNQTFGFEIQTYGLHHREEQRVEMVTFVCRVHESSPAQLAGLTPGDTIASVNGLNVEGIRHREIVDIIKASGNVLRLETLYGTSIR
Chain of FRMPD4, Q14CM0 (Q14CM0 67-160): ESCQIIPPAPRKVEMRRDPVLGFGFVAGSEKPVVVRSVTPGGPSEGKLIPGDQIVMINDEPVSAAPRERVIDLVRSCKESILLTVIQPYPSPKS
Chain of GRIP2_3, Q9C0E4 (Q9C0E4 238-339): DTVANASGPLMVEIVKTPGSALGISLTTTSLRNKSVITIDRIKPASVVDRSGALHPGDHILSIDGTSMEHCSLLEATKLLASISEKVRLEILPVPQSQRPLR
Chain of DLG4_1, P78352 (P78352 62-152): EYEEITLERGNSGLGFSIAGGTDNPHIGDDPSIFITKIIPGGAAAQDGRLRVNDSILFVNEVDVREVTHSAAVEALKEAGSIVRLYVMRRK

| pKd (GRIP2_3, Q9C0E4) | pKd (PDZRN3_1, Q9UPQ7) | pKd (DLG4_1, P78352) | pKd (MAST2, Q6P0Q8) | pKd (LIN7A, O14910) | pKd (GRIP1_5, Q9Y3R0) | pKd (GRIP2_6, Q9C0E4) | pKd (MAGI2_3, Q86UL8) | pKd (FRMPD4, Q14CM0) | pKd (Inadl_4, Q8NI35) | pKd (SCRIB_2, Q14160) | pKd (GRASP, Q7Z6J2) | pKd (GRID2IP_1, A4D2P6) | pKd (MPP6, Q9NZW5) | pKd (HTRA1, Q92743) | pKd (PCLO, Q9Y6V0) | pKd (FRMPD1, Q5SYB0) | pKd (MPP7, Q5T2T1) | pKd (MAGI2_5, Q86UL8) | pKd (Inadl_3, Q8NI35) | Binder | also measured |
| --- | --- | --- | --- | --- | --- | --- | --- | --- | --- | --- | --- | --- | --- | --- | --- | --- | --- | --- | --- | --- | --- |
| below the threshold | 3.48 | below the threshold | 4.21 | below the threshold | below the threshold | below the threshold | 3.5 | 4.39 | below the threshold | below the threshold | below the threshold | below the threshold | below the threshold | 3.59 | below the threshold | below the threshold | below the threshold | below the threshold | 3.48 | PEYLGLDVPV [ERBB2, P04626] | pKd (MAGI1_2, Q96QZ7): below the threshold; pKd (SYNJ2BP, P57105): below the threshold; pKd (PTPN13_1, Q12923): below the threshold; pKd (GRIP1_7, Q9Y3R0): 3.52; pKd (MAGI1_1, Q96QZ7): below the threshold; pKd (ARHGAP21, Q5T5U3): 4.12; pKd (NHERF4_2, Q86UT5): below the threshold |
| below the threshold | 3.48 | below the threshold | 5.41 | below the threshold | below the threshold | below the threshold | below the threshold | 5.3 | below the threshold | below the threshold | below the threshold | below the threshold | below the threshold | 4.7 | below the threshold | below the threshold | below the threshold | below the threshold | below the threshold | TSQESEDTYL [TBC1D10A, Q9BXI6] | pKd (MAGI1_2, Q96QZ7): below the threshold; pKd (SYNJ2BP, P57105): 3.93; pKd (PTPN13_1, Q12923): below the threshold; pKd (GRIP1_7, Q9Y3R0): below the threshold; pKd (MAGI1_1, Q96QZ7): below the threshold; pKd (ARHGAP21, Q5T5U3): 4.45; pKd (NHERF4_2, Q86UT5): below the threshold |
| below the threshold | below the threshold | 4.71 | 4.95 | below the threshold | below the threshold | below the threshold | below the threshold | below the threshold | below the threshold | 4.43 | below the threshold | below the threshold | below the threshold | below the threshold | below the threshold | below the threshold | below the threshold | below the threshold | below the threshold | KKMPSIESDV [GRIN2A, Q12879] | pKd (MAGI1_2, Q96QZ7): below the threshold; pKd (SYNJ2BP, P57105): 4.85; pKd (PTPN13_1, Q12923): below the threshold; pKd (GRIP1_7, Q9Y3R0): below the threshold; pKd (MAGI1_1, Q96QZ7): below the threshold; pKd (ARHGAP21, Q5T5U3): below the threshold; pKd (NHERF4_2, Q86UT5): below the threshold |
| below the threshold | below the threshold | 3.69 | 4.9 | below the threshold | below the threshold | below the threshold | below the threshold | below the threshold | below the threshold | 3.75 | 3.82 | below the threshold | below the threshold | below the threshold | below the threshold | below the threshold | below the threshold | below the threshold | below the threshold | DDENIRTSDV [PLEKHA2, Q9HB19] | pKd (MAGI1_2, Q96QZ7): below the threshold; pKd (SYNJ2BP, P57105): 4.38; pKd (PTPN13_1, Q12923): below the threshold; pKd (GRIP1_7, Q9Y3R0): below the threshold; pKd (MAGI1_1, Q96QZ7): below the threshold; pKd (ARHGAP21, Q5T5U3): 4.37; pKd (NHERF4_2, Q86UT5): below the threshold |
| below the threshold | below the threshold | 4.82 | 5.11 | below the threshold | below the threshold | below the threshold | 3.55 | below the threshold | below the threshold | below the threshold | 4.41 | below the threshold | below the threshold | 4.5 | below the threshold | below the threshold | below the threshold | 4.44 | 3.73 | AKPSRISTVV [IQSEC2, Q5JU85] | pKd (MAGI1_2, Q96QZ7): 4.82; pKd (SYNJ2BP, P57105): 4.51; pKd (PTPN13_1, Q12923): below the threshold; pKd (GRIP1_7, Q9Y3R0): below the threshold; pKd (MAGI1_1, Q96QZ7): below the threshold; pKd (ARHGAP21, Q5T5U3): below the threshold; pKd (NHERF4_2, Q86UT5): below the threshold |
